Our source for the IC50 values is patent US20240002503A1.

For the test, the target named is LILRB2 (human) (UniProt Q8N423). Nature of the test: flow cytometry HLA-G blocking; hIgG4 isotype control.
UniProt Q8N423, sequence (Q8N423 22-597): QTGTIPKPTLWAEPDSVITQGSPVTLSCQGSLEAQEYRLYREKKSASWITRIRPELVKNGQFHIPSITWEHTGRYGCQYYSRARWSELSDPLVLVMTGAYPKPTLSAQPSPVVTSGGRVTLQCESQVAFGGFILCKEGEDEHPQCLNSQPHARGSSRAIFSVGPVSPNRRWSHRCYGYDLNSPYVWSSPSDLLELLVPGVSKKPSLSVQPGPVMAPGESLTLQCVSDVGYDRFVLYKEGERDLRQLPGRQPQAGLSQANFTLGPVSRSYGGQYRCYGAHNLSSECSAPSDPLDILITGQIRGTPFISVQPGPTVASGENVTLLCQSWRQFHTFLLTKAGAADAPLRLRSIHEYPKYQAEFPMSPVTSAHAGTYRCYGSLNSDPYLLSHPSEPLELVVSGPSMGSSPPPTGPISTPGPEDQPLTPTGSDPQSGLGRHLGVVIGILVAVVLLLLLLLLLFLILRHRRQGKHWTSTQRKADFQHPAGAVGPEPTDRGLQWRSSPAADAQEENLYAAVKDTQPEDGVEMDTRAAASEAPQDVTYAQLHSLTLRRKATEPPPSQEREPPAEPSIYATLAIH

Consider Isotype, for which the IC50 is above 0.0667 µM.
